Test results: patent US20230072640A1 (VANDERBILT UNIVERSITY, published 2023)

Target: E protein of YFV-17D virus (Yellow fever virus strain 17D, UniProt P03314 286-778)
Assay: cell-based or functional assay

Chain of E protein of YFV-17D virus (P03314 286-778 limits assumed): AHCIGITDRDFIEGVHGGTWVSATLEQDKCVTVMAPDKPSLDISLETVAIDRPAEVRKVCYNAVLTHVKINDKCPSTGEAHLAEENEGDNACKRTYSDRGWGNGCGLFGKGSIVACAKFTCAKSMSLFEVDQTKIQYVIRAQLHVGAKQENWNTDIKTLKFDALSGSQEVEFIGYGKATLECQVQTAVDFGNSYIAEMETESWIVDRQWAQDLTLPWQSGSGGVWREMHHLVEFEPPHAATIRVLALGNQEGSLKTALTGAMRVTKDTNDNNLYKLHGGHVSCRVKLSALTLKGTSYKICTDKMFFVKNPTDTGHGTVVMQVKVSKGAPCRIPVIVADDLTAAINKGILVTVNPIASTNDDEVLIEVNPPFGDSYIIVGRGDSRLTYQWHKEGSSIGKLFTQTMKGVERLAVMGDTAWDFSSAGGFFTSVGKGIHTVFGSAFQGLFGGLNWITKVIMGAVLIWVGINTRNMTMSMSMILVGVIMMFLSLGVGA

B1: human monoclonal antibody YFV-136 (antibody, V domains shown)
VH: QVQLQESGPGLVKPSGTLSLTCAVSGGSISSSNWWSWVRQPPGKGLEWIGDIYHSGSTSYNPSLKSRVTISVDRSKNQFSLKLSSVTAADTAVYYCARAPLVNWYYFDYWGQGTLVTVSS
VL: QSVLTQPPSVSAAPGQKVTISCSGSSSNIGNNYVSWYQQLPGTAPKLLIYDNNKGPSGIPDRFSGSKSGTSATLGITGLQTGDEADYYCGTWDTSLSAGRVFGGGTKLTVL
IC50, focus reduction neutralization test (FRNT) of YFV-17D in Vero cells: < 10 ng/mL
